Patent US7588931B2, “High arachidonic acid producing strains of Yarrowia lipolytica” (E. I. du Pont de Nemours and Company, priority 2004, dated 2009)

Legend:
[1] = tested on: β-glucuronidase (GUS) reporter; assay: Relative promoter activity rank from comparative GUS reporter studies (histochemical, fluorometric and/or Real Time PCR); format: cell-based, Yarrowia lipolytica; settings: relative to other promoters
Method: The activity of GPM is about the same as TEF, while the activity of GPD, FBA, FBAIN, FBAINm, GPDIN, GPAT, YAT1 and EXP1 are all greater than TEF (activity is quantified in a relative manner in the column titled “Activity Rank”, wherein a ‘1’ corresponds to the promoter with lowest activity, while a ‘7’ corresponds to the promoter with highest activity). […] GUS activity in each expressed construct was measured by histochemical and/or fluorometric assays (Jefferson, R. A. Plant Mol. Biol. Reporter 5:387-405 (1987)) and/or by use of Real Time PCR.

Yarrowia lipolytica = assay: Percent substrate conversion of desaturases and elongases expressed in Yarrowia lipolytica; format: cell-based; settings: percent substrate conversion, codon-optimized gene expressed in Y. lipolytica
Method: The terms “conversion efficiency” and “percent substrate conversion” refer to the efficiency by which a particular enzyme (e.g., a desaturase or elongase) can convert substrate to product. The conversion efficiency is measured according to the following formula: ([product]/[substrate+product])*100, where ‘product’ includes the immediate product and all products in the pathway derived from it.
With respect to Δ12 desaturase, Applicants have made the surprising discovery that the Fusarium moniliforme Δ12 desaturase (encoded by SEQ ID NO:27) functions with greater efficiency than the native Yarrowia lipolytica Δ12 desaturase in producing 18:2 in Y. lipolytica (see WO 2005/047485). Specifically, expression of the F. moniliforme Δ12 desaturase under the control of the TEF promoter in Y. lipolytica was determined to produce higher levels of 18:2 (68% product accumulation of LA) than were previously attainable by expression of a chimeric gene encoding the Y. lipolytica Δ12 desaturase under the control of the TEF promoter (59% product accumulation of LA). This corresponds to a difference in percent substrate conversion (calculated as ([18:2+18:3]/[18:1+18:2+18:3])*100) of 85% versus 74%, respectively.
In the present invention, several desaturase and elongase genes from Table 5 were codon-optimized for expression in Yarrowia lipolytica, based on the host preferences described above. This was possible by first determining the Y. lipolytica codon usage profile (see WO 04/101757) and identifying those codons that were preferred. Then, for further optimization of gene expression in Y. lipolytica, the consensus sequence around the ‘ATG’ initiation codon was determined (i.e., ‘MAMMATGNHS’ (SEQ ID NO:356), wherein the nucleic acid degeneracy code used is as follows: M=A/C; S═C/G; H=A/C/T; and N=A/C/G/T). Table 7, below, compares the activity of native and codon-optimized genes when expressed in Y. lipolytica and provides details about each codon-optimized gene. % Sub. Conv. is the abbeviation for “percent substrate conversion” and Codon-Opt. is an abbreviation for “codon-optimized”.
Construct pDMW237 (FIG. 8C), an auto-replication plasmid comprising a chimeric FBAIN::1 g D9e::Pex20 gene, was transformed into Y. lipolytica Y2031 strain (Example 4) as described in the General Methods. Three transformants of Y2031 with pDMW237 were grown individually in MM media for two days and the cells were collected by centrifugation, lipids were extracted, and fatty acid methyl esters were prepared by trans-esterification, and subsequently analyzed with a Hewlett-Packard 6890 GC.
Construct pDMW297 was then used for transformation of strain Y2031 (Example 5) according to the General Methods. The transformant cells were plated onto MM selection media plates and maintained at 30° C. for 2 to 3 days. A total of 8 transformants grown on the MM plates were picked and re-streaked onto fresh MM plates. Once grown, these strains were individually inoculated into liquid MM at 30° C. and shaken at 250 rpm/min for 2 days. The cells were collected by centrifugation, lipids were extracted, and fatty acid methyl esters were prepared by trans-esterification, and subsequently analyzed with a Hewlett-Packard 6890 GC.

B1: EXP1: Y. lipolytica export protein promoter, SEQ ID NO:364 (nucleic acid, listed as Yarrowia lipolytica)
DNA: GGAGTTTGGCGCCCGTTTTTTCGAGCCCCACACGTTTCGGTGAGTATGAGCGGCGGCAGATTCGAGCGTTTCCGGTTTCCGCGGCTGGACGAGAGCCCATGATGGGGGCTCCCACCACCAGCAATCAGGGCCCTGATTACACACCCACCTGTAATGTCATGCTGTTCATCGTGGTTAATGCTGCTGTGTGCTGTGTGTGTGTGTTGTTTGGCGCTCATTGTTGCGTTATGCAGCGTACACCACAATATTGGAAGCTTATTAGCCTTTCTATTTTTTCGTTTGCAAGGCTTAACAACATTGCTGTGGAGAGGGATGGGGATATGGAGGCCGCTGGAGGGAGTCGGAGAGGCGTTTTGGAGCGGCTTGGCCTGGCGCCCAGCTCGCGAAACGCACCTAGGACCCTTTGGCACGCCGAAATGTGCCACTTTTCAGTCTAGTAACGCCTTACCTACGTCATTCCATGCATGCATGTTTGCGCCTTTTTTCCCTTGCCCTTGATCGCCACACAGTACAGTGCACTGTACAGTGGAGGTTTTGGGGGGGTCTTAGATGGGAGCTAAAAGCGGCCTAGCGGTACACTAGTGGGATTGTATGGAGTGGCATGGAGCCTAGGTGGAGCCTGACAGGACGCACGACCGGCTAGCCCGTGACAGACGATGGGTGGCTCCTGTTGTCCACCGCGTACAAATGTTTGGGCCAAAGTCTTGTCAGCCTTGCTTGCGAACCTAATTCCCAATTTTGTCACTTCGCACCCCCATTGATCGAGCCCTAACCCCTGCCCATCAGGCAATCCAATTAAGCTCGCATTGTCTGCCTTGTTTAGTTTGGCTCCTGCCCGTTTCGGCGTCCACTTGCACAAACACAAACAAGCATTATATATAAGGCTCGTCTCTCCCTCCCAACCACACTCACTTTTTTGCCCGTCTTCCCTTGCTAACACAAAAGTCAAGAACACAAACAACCACCCCAACCCCCTTACACACAAGACATATCTACAGCA
modifications: misc_feature: Promoter EXP1
With B1 the “Activity “Rank”” value [1] was 6.

B2: Homo sapiens Δ5 desaturase: GenBank NP_037534; codon-optimized gene SEQ ID NO:13 (protein, listed as Homo sapiens)
chain: MAPDPVAAETAAQGPTPRYFTWDEVAQRSGCEERWLVIDRKVYNISEFTRRHPGGSRVISHYAGQDATDPFVAFHINKGLVKKYMNSLLIGELSPEQPSFEPTKNKELTDEFRELRATVERMGLMKANHVFFLLYLLHILLLDGAAWLTLWVFGTSFLPFLLCAVLLSAVQAQAGWLQHDFGHLSVFSTSKWNHLLHHFVIGHLKGAPASWWNHMHFQHHAKPNCFRKDPDINMHPFFFALGKILSVELGKQKKKYMPYNHQHKYFFLIGPPALLPLYFQWYIFYFVIQRKKWVDLAWMITFYVRFFLTYVPLLGLKAFLGLFFIVRFLESNWFVWVTQMNHIPMHIDHDRNMDWVSTQLQATCNVHKSAFNDWFSGHLNFQIEHHLFPTMPRHNYHKVAPLVQSLCAKHGIEYQSKPLLSAFADIIHSLKESGQLWLDAYLHQ
modifications: misc_feature: synthetic delta-5 desaturase (codon-optimized)
For B2, the “Codon-Opt. Gene % Sub. Conv.” value (Yarrowia lipolytica) was 30%.

B3: FBAINm: modified version of the FBAIN promoter, SEQ ID NO:163 (nucleic acid, listed as Yarrowia lipolytica)
DNA: AAATTGCCCCGGAGAAGACGGCCAGGCCGCCTAGATGACAAATTCAACAACTCACAGCTGACTTTCTGCCATTGCCACTAGGGGGGGGCCTTTTTATATGGCCAAGCCAAGCTCTCCACGTCGGTTGGGCTGCACCCAACAATAAATGGGTAGGGTTGCACCAACAAAGGGATGGGATGGGGGGTAGAAGATACGAGGATAACGGGGCTCAATGGCACAAATAAGAACGAATACTGCCATTAAGACTCGTGATCCAGCGACTGACACCATTGCATCATCTAAGGGCCTCAAAACTACCTCGGAACTGCTGCGCTGATCTGGACACCACAGAGGTTCCGAGCACTTTAGGTTGCACCAAATGTCCCACCAGGTGCAGGCAGAAAACGCTGGAACAGCGTGTACAGTTTGTCTTAACAAAAAGTGAGGGCGCTGAGGTCGAGCAGGGTGGTGTGACTTGTTATAGCCTTTAGAGCTGCGAAAGCGCGTATGGATTTGGCTCATCAGGCCAGATTGAGGGTCTGTGGACACATGTCATGTTAGTGTACTTCAATCGCCCCCTGGATATAGCCCCGACAATAGGCCGTGGCCTCATTTTTTTGCCTTCCGCACATTTCCATTGCTCGGTACCCACACCTTGCTTCTCCTGCACTTGCCAACCTTAATACTGGTTTACATTGACCAACATCTTACAAGCGGGGGGCTTGTCTAGGGTATATATAAACAGTGGCTCTCCCAATCGGTTGCCAGTCTCTTTTTTCCTTTCTTTCCCCACAGATTCGAAATCTAAACTACACATCACAGAATTCCGAGCCGTGAGTATCCACGACAAGATCAGTGTCGAGACGACGCGTTTTGTGTAATGACACAATCCGAAAGTCGCTAGCAACACACACTCTCTACACAAACTAACCCAGCTCTGGTACC
modifications: misc_feature: Promoter FBAINm
For B3, the “Activity “Rank”” value [1] was 5.

B4: Rattus norvegicus C16/18 elongase: GenBank AB071986; codon-optimized gene SEQ ID NO:52 (protein, listed as Rattus norvegicus)
chain: MDMSVLTLQEYEFEKQFNENEAIQWMQENWKKSFLFSALYAAFIFGGRHLMNKRAKFELRKPLVLWSLTLAVFSIFGALRTGAYMLYILMTKGLKQSVCDQSFYNGPVSKFWAYAFVLSKAPELGDTIFIILRKQKLIFLHWYHHITVLLYSWYSYKDMVAGGGWFMTMNYGVHAVMYSYYALRAAGFRVSRKFAMFITLSQITQMLMGCVINYLVFNWMQHDNDQCYSHFQNIFWSSLMYLSYLLLFCHFFFEAYIGKVKKATKAE
modifications: misc_feature: synthetic C16/18 elongase (codon-optimized)
B4 was tested, and the “Codon-Opt. Gene % Sub. Conv.” value (Yarrowia lipolytica) was 43%.
